Reference: PMC9482650, “Quantitative fragmentomics allow affinity mapping of interactomes” (Nature Communications, 2022)

T1: TJP3_3, O95049
T1 sequence (O95049 375-456, limits assumed, looked up): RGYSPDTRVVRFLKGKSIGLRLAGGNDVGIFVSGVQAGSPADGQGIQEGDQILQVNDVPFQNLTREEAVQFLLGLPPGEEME

T2: MPP2, Q14168
T2 sequence (Q14168 180-250, limits assumed, looked up): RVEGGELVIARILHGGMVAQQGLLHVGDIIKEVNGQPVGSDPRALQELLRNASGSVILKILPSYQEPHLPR

T3: NHERF3_1, Q5T2W1
T3 sequence (Q5T2W1 4-100, limits assumed, looked up): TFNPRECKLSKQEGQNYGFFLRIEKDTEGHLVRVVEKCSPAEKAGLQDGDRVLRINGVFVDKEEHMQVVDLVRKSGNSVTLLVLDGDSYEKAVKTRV

T4: DFNB31_2, Q9P202
T4 sequence (Q9P202 274-371, limits assumed, looked up): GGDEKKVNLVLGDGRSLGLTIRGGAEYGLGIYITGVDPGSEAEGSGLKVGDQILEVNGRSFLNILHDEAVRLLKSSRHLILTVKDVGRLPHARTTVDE

T5: NHERF3_3, Q5T2W1
T5 sequence (Q5T2W1 238-333, limits assumed, looked up): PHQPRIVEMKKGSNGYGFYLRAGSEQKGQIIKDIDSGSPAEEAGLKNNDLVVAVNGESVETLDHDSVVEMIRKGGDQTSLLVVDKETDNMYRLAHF

T6: GRIP1_5, Q9Y3R0
T6 sequence (Q9Y3R0 568-668, limits assumed, looked up): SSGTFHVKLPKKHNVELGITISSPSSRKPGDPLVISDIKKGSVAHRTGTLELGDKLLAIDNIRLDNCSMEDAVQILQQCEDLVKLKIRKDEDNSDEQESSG

T7: PCLO, Q9Y6V0
T7 sequence (Q9Y6V0 4491-4600, limits assumed, looked up): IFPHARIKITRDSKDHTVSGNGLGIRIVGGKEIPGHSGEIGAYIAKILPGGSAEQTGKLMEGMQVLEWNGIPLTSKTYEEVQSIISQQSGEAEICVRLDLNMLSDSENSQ

T8: LNX2_2, Q8N448
T8 sequence (Q8N448 334-432, limits assumed, looked up): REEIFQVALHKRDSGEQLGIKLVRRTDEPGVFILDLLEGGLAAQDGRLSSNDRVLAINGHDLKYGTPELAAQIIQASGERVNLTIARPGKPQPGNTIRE

T9: DLG3_3, Q92796
T9 sequence (Q92796 374-475, limits assumed, looked up): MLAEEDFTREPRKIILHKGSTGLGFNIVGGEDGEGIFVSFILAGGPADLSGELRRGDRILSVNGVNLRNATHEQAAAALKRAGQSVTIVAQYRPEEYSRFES

T10: SHANK1, Q9Y566
T10 sequence (Q9Y566 658-767, limits assumed, looked up): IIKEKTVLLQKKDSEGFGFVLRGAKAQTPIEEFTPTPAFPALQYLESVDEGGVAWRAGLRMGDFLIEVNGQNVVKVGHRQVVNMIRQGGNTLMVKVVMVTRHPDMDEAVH

T11: TIAM2, Q8IVF5
T11 sequence (Q8IVF5 885-986, limits assumed, looked up): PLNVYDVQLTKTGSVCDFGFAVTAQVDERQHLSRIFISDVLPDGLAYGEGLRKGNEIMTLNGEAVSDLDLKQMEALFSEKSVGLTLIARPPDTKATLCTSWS


Key:
Assay in all cases: holdup assay
Set-up in all cases: key: below the threshold = too weak to quantify, mostly under pKd 3.1 to 4
Conditions in all cases: plain residues with an end cap or a label only (N-terminal biotin on a linker: ado-ado)
DLG1_3, Q12959 = biological target: DLG1_3, Q12959
Sequence of DLG1_3, Q12959 (Q12959 457-571): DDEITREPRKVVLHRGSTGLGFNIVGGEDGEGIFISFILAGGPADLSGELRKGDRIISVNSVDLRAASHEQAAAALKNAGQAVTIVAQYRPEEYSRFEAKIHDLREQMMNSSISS

TJP3_3, O95049 = biological target: T1, TJP3_3, O95049
MAGI2_6, Q86UL8 = biological target: MAGI2_6, Q86UL8
Sequence of MAGI2_6, Q86UL8 (Q86UL8 1141-1229): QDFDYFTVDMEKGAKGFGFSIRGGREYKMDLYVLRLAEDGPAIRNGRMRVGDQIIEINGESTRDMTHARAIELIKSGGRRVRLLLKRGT

MPP2, Q14168 = biological target: T2, MPP2, Q14168
NOS1, P29475 = biological target: NOS1, P29475
Sequence of NOS1, P29475 (P29475 9-101): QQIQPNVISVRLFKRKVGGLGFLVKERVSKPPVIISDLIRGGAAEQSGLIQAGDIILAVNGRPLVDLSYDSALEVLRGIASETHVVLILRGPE

NHERF4_1, Q86UT5-2 = biological target: NHERF4_1, Q86UT5-2
Sequence of NHERF4_1, Q86UT5-2 (Q86UT5 other isoform, or with tags, fused parts or gaps): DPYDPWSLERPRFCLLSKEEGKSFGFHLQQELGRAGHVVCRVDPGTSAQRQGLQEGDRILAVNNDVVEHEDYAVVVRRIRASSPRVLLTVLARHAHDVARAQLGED

NHERF3_1, Q5T2W1 = biological target: T3, NHERF3_1, Q5T2W1
Inadl_8, Q8NI35 = biological target: Inadl_8, Q8NI35
Sequence of Inadl_8, Q8NI35 (Q8NI35 1425-1530): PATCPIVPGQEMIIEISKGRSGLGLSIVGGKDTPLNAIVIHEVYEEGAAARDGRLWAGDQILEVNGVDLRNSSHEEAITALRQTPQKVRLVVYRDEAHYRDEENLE

DFNB31_2, Q9P202 = biological target: T4, DFNB31_2, Q9P202
MAGI2_2, Q86UL8 = biological target: MAGI2_2, Q86UL8
Sequence of MAGI2_2, Q86UL8 (Q86UL8 410-522): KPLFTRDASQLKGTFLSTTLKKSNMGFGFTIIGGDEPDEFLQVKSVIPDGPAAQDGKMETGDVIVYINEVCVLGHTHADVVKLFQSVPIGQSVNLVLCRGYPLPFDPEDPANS

TJP1_3, Q07157 = biological target: TJP1_3, Q07157
Sequence of TJP1_3, Q07157 (Q07157 416-512): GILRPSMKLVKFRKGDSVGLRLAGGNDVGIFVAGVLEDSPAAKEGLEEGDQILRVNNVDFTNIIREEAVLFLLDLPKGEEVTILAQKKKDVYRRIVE

NHERF3_3, Q5T2W1 = biological target: T5, NHERF3_3, Q5T2W1
GRIP1_5, Q9Y3R0 = biological target: T6, GRIP1_5, Q9Y3R0
GRID2IP_1, A4D2P6 = biological target: GRID2IP_1, A4D2P6
Sequence of GRID2IP_1, A4D2P6 (A4D2P6 1-87): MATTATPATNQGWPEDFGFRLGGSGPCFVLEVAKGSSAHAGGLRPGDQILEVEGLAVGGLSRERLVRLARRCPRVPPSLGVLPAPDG

PTPN3, P26045 = biological target: PTPN3, P26045
Sequence of PTPN3, P26045 (P26045 505-587): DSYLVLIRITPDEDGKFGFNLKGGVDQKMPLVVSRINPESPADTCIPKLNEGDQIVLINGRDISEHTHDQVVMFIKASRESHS

FRMPD2_2, Q68DX3 = biological target: FRMPD2_2, Q68DX3
Sequence of FRMPD2_2, Q68DX3 (Q68DX3 944-1038): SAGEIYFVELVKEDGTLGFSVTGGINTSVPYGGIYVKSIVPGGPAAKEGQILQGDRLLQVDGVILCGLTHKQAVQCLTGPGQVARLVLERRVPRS

PCLO, Q9Y6V0 = biological target: T7, PCLO, Q9Y6V0
LNX2_2, Q8N448 = biological target: T8, LNX2_2, Q8N448
DLG3_3, Q92796 = biological target: T9, DLG3_3, Q92796
IL16_1, Q14005 = biological target: IL16_1, Q14005
Sequence of IL16_1, Q14005 (Q14005 210-306): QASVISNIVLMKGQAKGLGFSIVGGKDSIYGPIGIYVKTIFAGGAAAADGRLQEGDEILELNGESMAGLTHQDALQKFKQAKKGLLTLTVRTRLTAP

GORASP1, Q9BQQ3 = biological target: GORASP1, Q9BQQ3
Sequence of GORASP1, Q9BQQ3 (Q9BQQ3 1-208): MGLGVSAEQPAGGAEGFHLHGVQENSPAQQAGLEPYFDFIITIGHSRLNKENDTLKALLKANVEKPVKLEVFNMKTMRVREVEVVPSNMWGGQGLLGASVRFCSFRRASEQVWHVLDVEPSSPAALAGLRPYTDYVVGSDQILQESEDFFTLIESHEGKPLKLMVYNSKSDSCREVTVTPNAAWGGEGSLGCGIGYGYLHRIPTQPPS

PICK1, Q9NRD5 = biological target: PICK1, Q9NRD5
Sequence of PICK1, Q9NRD5 (Q9NRD5 17-115): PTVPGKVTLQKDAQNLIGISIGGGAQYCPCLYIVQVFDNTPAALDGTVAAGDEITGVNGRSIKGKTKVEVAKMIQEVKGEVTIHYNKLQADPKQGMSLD

Inadl_6, Q8NI35 = biological target: Inadl_6, Q8NI35
Sequence of Inadl_6, Q8NI35 (Q8NI35 1058-1167): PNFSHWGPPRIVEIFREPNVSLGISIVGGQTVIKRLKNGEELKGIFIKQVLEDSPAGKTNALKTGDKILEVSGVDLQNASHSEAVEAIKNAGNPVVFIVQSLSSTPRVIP

SHANK1, Q9Y566 = biological target: T10, SHANK1, Q9Y566
TIAM2, Q8IVF5 = biological target: T11, TIAM2, Q8IVF5
DLG4_3, P78352 = biological target: DLG4_3, P78352
Sequence of DLG4_3, P78352 (P78352 306-403): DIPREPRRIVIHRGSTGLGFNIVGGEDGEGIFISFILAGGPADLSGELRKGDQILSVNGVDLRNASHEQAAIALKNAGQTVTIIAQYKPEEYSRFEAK

DLG4_1, P78352 = biological target: DLG4_1, P78352
Sequence of DLG4_1, P78352 (P78352 62-152): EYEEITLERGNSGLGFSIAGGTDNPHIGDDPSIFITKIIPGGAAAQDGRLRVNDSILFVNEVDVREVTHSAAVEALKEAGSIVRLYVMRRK

pKd (DLG1_3, Q12959) | pKd (TJP3_3, O95049) | pKd (MAGI2_6, Q86UL8) | pKd (MPP2, Q14168) | pKd (NOS1, P29475) | pKd (NHERF4_1, Q86UT5-2) | pKd (NHERF3_1, Q5T2W1) | pKd (Inadl_8, Q8NI35) | pKd (DFNB31_2, Q9P202) | pKd (MAGI2_2, Q86UL8) | pKd (TJP1_3, Q07157) | pKd (NHERF3_3, Q5T2W1) | pKd (GRIP1_5, Q9Y3R0) | pKd (GRID2IP_1, A4D2P6) | pKd (PTPN3, P26045) | pKd (FRMPD2_2, Q68DX3) | pKd (PCLO, Q9Y6V0) | pKd (LNX2_2, Q8N448) | pKd (DLG3_3, Q92796) | pKd (IL16_1, Q14005) | Binder | also measured
below the threshold | below the threshold | below the threshold | below the threshold | below the threshold | 3.81 | 3.61 | below the threshold | below the threshold | below the threshold | below the threshold | below the threshold | below the threshold | below the threshold | 3.83 | below the threshold | below the threshold | below the threshold | below the threshold | below the threshold | RKPKPSSSCC [RAB9A, P51151] | pKd (GORASP1, Q9BQQ3): below the threshold; pKd (PICK1, Q9NRD5): below the threshold; pKd (Inadl_6, Q8NI35): below the threshold; pKd (SHANK1, Q9Y566): below the threshold; pKd (TIAM2, Q8IVF5): 3.8; pKd (DLG4_3, P78352): below the threshold; pKd (DLG4_1, P78352): below the threshold
below the threshold | below the threshold | below the threshold | below the threshold | below the threshold | below the threshold | below the threshold | below the threshold | below the threshold | below the threshold | below the threshold | below the threshold | below the threshold | below the threshold | below the threshold | below the threshold | below the threshold | 3.72 | below the threshold | below the threshold | LKVPPEERLI [CRB2, Q5IJ48] | pKd (GORASP1, Q9BQQ3): below the threshold; pKd (PICK1, Q9NRD5): below the threshold; pKd (Inadl_6, Q8NI35): below the threshold; pKd (SHANK1, Q9Y566): below the threshold; pKd (TIAM2, Q8IVF5): below the threshold; pKd (DLG4_3, P78352): below the threshold; pKd (DLG4_1, P78352): below the threshold
below the threshold | below the threshold | 4.1 | below the threshold | below the threshold | 4 | 4.95 | below the threshold | below the threshold | below the threshold | below the threshold | below the threshold | below the threshold | below the threshold | 5.22 | below the threshold | below the threshold | below the threshold | below the threshold | below the threshold | TASPAKETSF [SLC2A7, Q6PXP3] | pKd (GORASP1, Q9BQQ3): below the threshold; pKd (PICK1, Q9NRD5): below the threshold; pKd (Inadl_6, Q8NI35): below the threshold; pKd (SHANK1, Q9Y566): below the threshold; pKd (TIAM2, Q8IVF5): 3.63; pKd (DLG4_3, P78352): below the threshold; pKd (DLG4_1, P78352): below the threshold
3.77 | below the threshold | below the threshold | below the threshold | 3.79 | 3.6 | 3.81 | below the threshold | below the threshold | 3.8 | below the threshold | below the threshold | below the threshold | below the threshold | 4.55 | below the threshold | below the threshold | below the threshold | below the threshold | below the threshold | MLSKQSESAI [FLVCR1, Q9Y5Y0] | pKd (GORASP1, Q9BQQ3): below the threshold; pKd (PICK1, Q9NRD5): below the threshold; pKd (Inadl_6, Q8NI35): below the threshold; pKd (SHANK1, Q9Y566): below the threshold; pKd (TIAM2, Q8IVF5): below the threshold; pKd (DLG4_3, P78352): below the threshold; pKd (DLG4_1, P78352): below the threshold
below the threshold | below the threshold | below the threshold | below the threshold | below the threshold | 3.51 | 3.76 | below the threshold | below the threshold | below the threshold | below the threshold | below the threshold | below the threshold | below the threshold | 3.87 | below the threshold | below the threshold | below the threshold | below the threshold | below the threshold | YRLAQESGLV [ABCC6, O95255] | pKd (GORASP1, Q9BQQ3): below the threshold; pKd (PICK1, Q9NRD5): 4.19; pKd (Inadl_6, Q8NI35): below the threshold; pKd (SHANK1, Q9Y566): below the threshold; pKd (TIAM2, Q8IVF5): below the threshold; pKd (DLG4_3, P78352): below the threshold; pKd (DLG4_1, P78352): below the threshold
